Experiment: yeast display, Sf9 membrane polyspecificity reagent, FACS + sequencing; frameworks hold sequencing errors
Outline: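 Nanobodies came from a synthetic yeast display library in Saccharomyces cerevisiae BJ5465, induced with galactose for 36–48 hours and stained for 1 hour at 4 °C with 10% biotinylated, detergent-solubilized Sf9 membrane reagent. Cells were enriched on streptavidin microbeads and then FACS-sorted, with low and high (top ~1%) gates set on anti-HA fluorescence for expression and streptavidin fluorescence for reagent binding. Each polyreactivity label reflects the gate a clone came from. Genes were amplified by colony PCR, sequenced by MiSeq 2 × 250 and filtered by CDR length.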
In the case of “QVQLVESGGGLVQAGGSLRLSCAASGRTFIKYAMGWYRQAPGKERELVAAITYSAGSTSYADSVKGRFTISRDNAKNTVYLQMNSLKPEDTAVYYCNAVPTWWTQEVGSYKSLGYWGQGTQVTVSS”, the “polyreactivity (PSR sort gate)” value is reported as “low polyreactivity”.
For “QVQLVESGGGLVQAGGSLRLSCAASGRTFINNAMGWYRQAPGKERELVAAISWDGGRTYYADSVKGRFTISRDNAKNTVYLQMNSLKPEDTAVYYCNAQPNYAYHGEDDYWGQGTQVTVSS”, the “polyreactivity (PSR sort gate)” value was “high polyreactivity”.
With “QVQLVESGGGLVQAGGSLRLSCAASGRTFIPYAMGWYRQAPGKERELVATIRRGGSTYYADSVKGRFTISRDNAKNTVYLQMYSLKPEDTAVYYCAATRYSFGPRRVDYWGQGTQVTVSS” the “polyreactivity (PSR sort gate)” value was “high polyreactivity”.
With “QVQLVESGGGLVQAGGSLRLSCAASGRTFIPYGMGWYRQAPGKERELVAAIRDGGSTNYADSVKGRFTISRDNAKNTVYLQMNSLKPADTAVYYCNADLPVYVDYINGGYGYWGQGTQVTVSS” the “polyreactivity (PSR sort gate)” value was “low polyreactivity”.
For “QVQLVESGGGLVQAGGSLRLSCAASGRTFIRYAMAWYRQAPGKGRELLAANNWSGSTYYADSVKGRFTISRDNAKNTVYVQINSLKPEDTAVYYCAAYPYGVTNAYGSWGQGTQVTVSS”, the “polyreactivity (PSR sort gate)” value was “high polyreactivity”.
In the case of “QVQLVESGGGLVQAGGSLRLSCAASGRTFIRYAMGWYRQAPGKERELVAAITQSGGSTYYADSVKGRFTISRDNAKNTVYLQMNSLKPEDTAVYYCAAEYRYPGWSYNYWGQGTQVTVSS”, the “polyreactivity (PSR sort gate)” value is reported as “high polyreactivity”.
With “QVQLVESGGGLVQAGGSLRLSCAASGRTFISNAMGWYRQAPGKERELVAAISSVGSTNYADSVKGRFTISRDNAKNTVYLQMKSLKPEDTAVYYCAAGRFWFLAHYGGYYWGQGTQVTVSS” the “polyreactivity (PSR sort gate)” value was “high polyreactivity”.
For “QVQLVESGGGLVQAGGSLRLSCAASGRTFISNTMGWYRQAPGKERELVAALSGSGGSTYYADSVKGRFTISRDNAKNSVYLNMNRLKPEDTAVYYCNAPYVRQTRFGQSVRNNYWGQGTQVTVSS”, the “polyreactivity (PSR sort gate)” value was “high polyreactivity”.
In the case of “QVQLVESGGGLVQAGGSLRLSCAASGRTFISYAMGWYRQAPGKERELVAGISTSGDNTYNADSVKGRFTISRDNAKNTVYLQMNSLKPEDTAVYYCAAGQDLHDFDYWGQGTQVTVSS”, the “polyreactivity (PSR sort gate)” value is reported as “low polyreactivity”.
In the case of “QVQLVESGGGLVQAGGSLRLSCAASGRTFIVNAMGWYRQAPGKERELVAAITKGARTYYADSVKGRFTISRDNAKNTVYLQMNSLKPEDSAVYYCAAVSYTQSHAYWGTGYRYGYWGQGTQVTVSS”, the “polyreactivity (PSR sort gate)” value is reported as “high polyreactivity”.
In the case of “QVQLVESGGGLVQAGGSLRLSCAASGRTFIYNVMGWYRQAPGKERELVASIRSSGGSTYYADSVKGRFTISRDNAKNSVYLQMNSLKPEDTAVYYCAADRSPGIRCWPGDYWGQGTQVTVSS”, the “polyreactivity (PSR sort gate)” value is reported as “low polyreactivity”.
In the case of “QVQLVESGGGLVQAGGSLRLSCAASGRTFIYYAMGWYRQAPGKEREFVAIISWNGTSTNYADSVKGRFTISRDNAKNTVYLQMNSLKPEDTAVYYCAASFWTDYYRYDYWGQGTQVTVSS”, the “polyreactivity (PSR sort gate)” value is reported as “low polyreactivity”.
With “QVQLVESGGGLVQAGGSLRLSCAASGRTFIYYAMGWYRQAPGKERELVAAITNRGGRTYYADSVKWRFTISRDNAKYTVYLQMNSLKPEDTAVYYCNRVGTYHSYDYWGQGTQVTVSS” the “polyreactivity (PSR sort gate)” value was “high polyreactivity”.
In the case of “QVQLVESGGGLVQAGGSLRLSCAASGRTFIYYTMGWYREAPGKERELVASISFSGGRTYYADSVKGRFTISRDNAKNTVYLQMNSLKAEDTAVYYCNRVLYYQVDYWGQGTEVTVSS”, the “polyreactivity (PSR sort gate)” value is reported as “high polyreactivity”.
With “QVQLVESGGGLVQAGGSLRLSCAASGRTFKDYVMGWYRQAPGKERELVAAITWRGGRTYYADSVKGRFTISRDNAKNTVYLQMNSLKPEDTAVYYCAAAEYFVSGGIMDYWGQGTQVTVSS” the “polyreactivity (PSR sort gate)” value was “high polyreactivity”.
In the case of “QVQLVESGGGLVQAGGSLRLSCAASGRTFKGYTMGWYRQAPGKERELVAAITRSGGGTYYADSVKGRFTISRDNAKNTVYLQMNSLKPEDTAVYYCAAYNGSRRQEFDYWGQGTQVTVSS”, the “polyreactivity (PSR sort gate)” value is reported as “high polyreactivity”.
With “QVQLVESGGGLVQAGGSLRLSCAASGRTFKLYAMGWYRQAPGKERELVATIRRSGTRTYADSVKGRFTISRDNAKNTVYLQMNSLKPEDTAVYYCAATTYGYVYHRYDYWGQGTQVTVSS” the “polyreactivity (PSR sort gate)” value was “high polyreactivity”.
With “QVQLVESGGGLVQAGGSLRLSCAASGRTFKPYAMGWYRQAPGKERELVAAISTRGGSTYADSVKGRFTISRDNAKNTVYLQMNSLKPEDTAVYSCAAVYYRASARKFGYWGQGTQVTVSS” the “polyreactivity (PSR sort gate)” value was “low polyreactivity”.
In the case of “QVQLVESGGGLVQAGGSLRLSCAASGRTFKPYGMGWYRQAPGKERELVAAISSRGDITYYADSVKGRFTISRDNAKNTVYLQMNSLKPEDTAVYYCNADLYRKRAWVRRDGSWGQGTQVTVSS”, the “polyreactivity (PSR sort gate)” value is reported as “low polyreactivity”.
With “QVQLVESGGGLVQAGGSLRLSCAASGRTFKRFAMGWYRQAPGKERELVAAITWSGGNTYYADSVKGRFTISRDNAKNTVYLQMNSLKPEDTAVYYCAAKGAGRRYDSWGQGTQVTVSS” the “polyreactivity (PSR sort gate)” value was “high polyreactivity”.
In the case of “QVQLVESGGGLVQAGGSLRLSCAASGRTFKSYAMGWYRQAPGKERELVATITRDGRTNYADSVKGRFTISRDNAKNTVYLQMNSLKPEDTAVYYCNADSRYRYDYWGLGTQVTVSS”, the “polyreactivity (PSR sort gate)” value is reported as “low polyreactivity”.
For “QVQLVESGGGLVQAGGSLRLSCAASGRTFKWNAMGWYRQAPGKERELVAAISSRDGSTYYADSVKGRFTISRDNAKNTVYLQMNSLKPEDTAVYYCNAYFTGARQRTLGYDYWGQGTQVTVSS”, the “polyreactivity (PSR sort gate)” value was “low polyreactivity”.
For “QVQLVESGGGLVQAGGSLRLSCAASGRTFKWNPMGWYRQAPGKERELVAAITRSDGRTFYADSVKGRFTISRDNAKNTVYLQMNSLKPEDSAVYYCNALGYRNSVIYSGFDYWGQGTQVTVSS”, the “polyreactivity (PSR sort gate)” value was “low polyreactivity”.
With “QVQLVESGGGLVQAGGSLRLSCAASGRTFKYYAMGWARQAPGKERELVATISYNGASTYYADSVKGRFTSSRDNAKNSVYLQMNSQKPEDTAVYYCAAAYLWRGRLGYWGQGTQVTVSS” the “polyreactivity (PSR sort gate)” value was “high polyreactivity”.
In the case of “QVQLVESGGGLVQAGGSLRLSCAASGRTFKYYAMGWYRQAPGKERELVAAISLSSGRTYYADSVKGRFTISRDNAKNTVYLQMNSLKPEDTAVYYCAAERYASGLVYGYDYWGQGTQVTVSS”, the “polyreactivity (PSR sort gate)” value is reported as “high polyreactivity”.
In the case of “QVQLVESGGGLVQAGGSLRLSCAASGRTFKYYAMGWYRQAPGKERELVAAISRGGSTNYADSVKGRFTISRDNAKNTVYLQVNSLKPEDTAVYYCARRYIVQSGDDYWGQGTQVTVSS”, the “polyreactivity (PSR sort gate)” value is reported as “low polyreactivity”.
For “QVQLVESGGGLVQAGGSLRLSCAASGRTFKYYAMGWYRQAPGKERELVAAISYNGGSTFYADSVKGRFTISRDNAKNTVYLQMNSLKPEDTAVYYCAAGSRYASELDYWGQGTQVTVSS”, the “polyreactivity (PSR sort gate)” value was “high polyreactivity”.
With “QVQLVESGGGLVQAGGSLRLSCAASGRTFKYYAMGWYRQAPGKERELVAAITYRDRTYYADSVKGRFTISRDNAKNTVYLQMNSLKPEDTAVYYCAAQHYGSDGRGFDYWGQGTQVTVSS” the “polyreactivity (PSR sort gate)” value was “low polyreactivity”.
With “QVQLVESGGGLVQAGGSLRLSCAASGRTFKYYAMGWYRQAPGKERELVAGITSGSSTSYADSVKGRFTISRDNAKITVYLQMNSLKPEDTAVYFCAAGIYQYRYDYWGQGTQVTVSS” the “polyreactivity (PSR sort gate)” value was “high polyreactivity”.
In the case of “QVQLVESGGGLVQAGGSLRLSCAASGRTFKYYAMGWYRQAPGKERELVAGITYRDGRTYYADSVKGRFTISRDNAKNTVYLQMNSLKPEDTEVYYCAAERYSSPYWGMDYWGQGTQVTVSS”, the “polyreactivity (PSR sort gate)” value is reported as “high polyreactivity”.
For “QVQLVESGGGLVQAGGSLRLSCAASGRTFKYYAMGWYRQAPGKERELVASISASGGSTRYADSVKGRFTISRDNAKNTVYLQMNSLKPEDTAVYYCAADRGYKYYYWGLGTQVTVSS”, the “polyreactivity (PSR sort gate)” value was “high polyreactivity”.
With “QVQLVESGGGLVQAGGSLRLSCAASGRTFKYYTMGWYRQAPGKEREFVAAITSSGGRTYYADSVKGRFTISRDNAKNTVDLQMNSLKPEDTAVYYCAASTYRVWLAPATLSRYDYWGQGTQVTVSS” the “polyreactivity (PSR sort gate)” value was “high polyreactivity”.
For “QVQLVESGGGLVQAGGSLRLSCAASGRTFLAYAMGWYRQAPGKERELVAAISSSGSTTYYADSVKGRFTISRDNAKNTVYLQMNSLKPEDTAVYYCAASNGYRSSYYRYDYWGQGTQVTVSS”, the “polyreactivity (PSR sort gate)” value was “low polyreactivity”.
In the case of “QVQLVESGGGLVQAGGSLRLSCAASGRTFLEYAMGWYRQAPGKERELVASITWSGDTTYYADSVKGRFTISRDNAKNTVYLQMNSLKPEDTAVYYCAAGYYYPNTYYSYDWYDYWGQGTQVTVSS”, the “polyreactivity (PSR sort gate)” value is reported as “low polyreactivity”.
In the case of “QVQLVESGGGLVQAGGSLRLSCAASGRTFLGYTMGWYRQAPGKESEFVAAITFSGDSTYYADSVKGRFTISRDNAKNTVYLQMNSLKPEDTAVYYCAARIKYYTYLFYYWGQGTQVTVSS”, the “polyreactivity (PSR sort gate)” value is reported as “high polyreactivity”.
In the case of “QVQLVESGGGLVQAGGSLRLSCAASGRTFLHNAKGWYRQAHGKERELVAAIDSGGTTHYADSVKGRFTISRDNAKNTVYLQMKSLKPEDTAVYYCAARPTRGNWWYGYWGQGTQVTVSS”, the “polyreactivity (PSR sort gate)” value is reported as “low polyreactivity”.
For “QVQLVESGGGLVQAGGSLRLSCAASGRTFLINAMGWYRQAPGKEWELVAAITQSGGSTYYADSVKGRFTISRDKAKNTVYLQLNSLKPEDTAVYYCAADVPGVYPYDYWGQGTQVTVSS”, the “polyreactivity (PSR sort gate)” value was “low polyreactivity”.
For “QVQLVESGGGLVQAGGSLRLSCAASGRTFLIYAMGWYRQAPGKERELVAAITSGGRTKYADSVKGRFTISRDNAKNTVYLQMNSLKPEDTAVYYCAARTGVYRYSRKFYYWGQGTQVTVSS”, the “polyreactivity (PSR sort gate)” value was “high polyreactivity”.
In the case of “QVQLVESGGGLVQAGGSLRLSCAASGRTFLKNAMGWYRQAPGKERELVAAITSGGSTNYADSVKGRFTISRDNAKNTVYLQMNSLKPEDTAVYYCNAPSYWYYPVLGSFLTFDYWGQGTQVTVSS”, the “polyreactivity (PSR sort gate)” value is reported as “low polyreactivity”.
With “QVQLVESGGGLVQAGGSLRLSCAASGRTFLLYAMGWYRQAPGKERELVAAITSGGGRTYYADSVKGRFTISRDNAKNTVYLQMNSLKPEDTAVYYCAATRPATYAAYDYWGQGTQVTVSS” the “polyreactivity (PSR sort gate)” value was “high polyreactivity”.
With “QVQLVESGGGLVQAGGSLRLSCAASGRTFLQYAMGWYRQAPGKERELVAANTTSGGDTYYADSVKGRFTISRDNAKNTVYLQMNSMKPDDTAVYYCNAAFRVYIPHVPYFVDFDYWGQGTQVTLSS” the “polyreactivity (PSR sort gate)” value was “low polyreactivity”.
For “QVQLVESGGGLVQAGGSLRLSCAASGRTFLVYAMGWYRQAPGKERELVAAIRYSGSSTYADSVKGRFTISRDNAKNTVYLQMNSLKPEDTAVYDCNARRASYRSIYDYWGHGTQVTVSS”, the “polyreactivity (PSR sort gate)” value was “high polyreactivity”.
With “QVQLVESGGGLVQAGGSLRLSCAASGRTFLVYAMGWYRQAPGKERELVAAITYSDGSTYYADSVKGRFTISRDNAKNTVYLQMNSLKPEDTAVYFCAADSSTFPSDYYWGKGTQVTVSS” the “polyreactivity (PSR sort gate)” value was “low polyreactivity”.
